# Results from the supplement of paper PMC9112550, “Optimization of the antimicrobial peptide Bac7 by deep mutational scanning” (BMC Biology, 2022).
# System: Escherichia coli TOP10
# Assay: shrunken log2 fold change of peptide-encoding DNA abundance (4.5 h post-induction vs induction); higher = less antimicrobial activity (less host growth inhibition)
# Settings: time post-induction: 4.5 h; library: site-saturation at positions 5, 18, 19, 20
# 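Further: peptides expressed intracellularly from a pBAD plasmid library in pooled LB shake-flask culture, induced with 0.3% L-arabinose, DNA abundance read by NGS, three biological replicates, DESeq2 with apeglm shrinkage.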
row,Sequence,shrunken log2 fold change
1,RRIRGRPPRLPRPRPRPNQHPRP,0.189
2,RRIRKRPPRLPRPRPRPHNWPRP,0.172
3,RRIRDRPPRLPRPRPRPDSQPRP,-0.0289
4,RRIRMRPPRLPRPRPRPYTYPRP,-0.398
5,RRIRMRPPRLPRPRPRPQLQPRP,0.165
6,RRIRNRPPRLPRPRPRPFYAPRP,-0.281
7,RRIRPRPPRLPRPRPRPSMTPRP,0.496
8,RRIRARPPRLPRPRPRPFIMPRP,-0.507
9,RRIRERPPRLPRPRPRPCGEPRP,-0.116
10,RRIRNRPPRLPRPRPRPVICPRP,-0.102
11,RRIRERPPRLPRPRPRPNEMPRP,0.0665
12,RRIRWRPPRLPRPRPRPIFWPRP,-0.00424
13,RRIRQRPPRLPRPRPRPDGVPRP,-0.119
14,RRIRQRPPRLPRPRPRPVADPRP,0.0976
15,RRIRTRPPRLPRPRPRPIYMPRP,-0.442
16,RRIRSRPPRLPRPRPRPMCYPRP,-0.0971
17,RRIRLRPPRLPRPRPRPYMSPRP,-0.0167
18,RRIRPRPPRLPRPRPRPMGRPRP,-0.0125
19,RRIRGRPPRLPRPRPRPQNKPRP,0.0435
20,RRIRIRPPRLPRPRPRPWGPPRP,0.102

row,Sequence,shrunken log2 fold change
1,RRIRDRPPRLPRPRPRPDARPRP,1.31
2,RRIRERPPRLPRPRPRPLSMPRP,-0.242
3,RRIRARPPRLPRPRPRPNRNPRP,-0.266
4,RRIRARPPRLPRPRPRPNQLPRP,-0.0527
5,RRIRFRPPRLPRPRPRPWGIPRP,-0.0116
6,RRIRERPPRLPRPRPRPPQLPRP,0.194
7,RRIRGRPPRLPRPRPRPLLIPRP,0.61
8,RRIRARPPRLPRPRPRPDGAPRP,0.673
9,RRIRDRPPRLPRPRPRPERYPRP,0.00592
10,RRIRTRPPRLPRPRPRPYCNPRP,-1.32
11,RRIRWRPPRLPRPRPRPHYDPRP,-0.0735
12,RRIRSRPPRLPRPRPRPQWQPRP,0.0358
13,RRIRYRPPRLPRPRPRPQTMPRP,-0.23
14,RRIRHRPPRLPRPRPRPAMLPRP,-0.168
15,RRIRKRPPRLPRPRPRPDAQPRP,1.59
16,RRIRFRPPRLPRPRPRPSDTPRP,-0.308
17,RRIRARPPRLPRPRPRPAIVPRP,-0.123
18,RRIRCRPPRLPRPRPRPDLMPRP,-0.424
19,RRIRDRPPRLPRPRPRPVSFPRP,-0.191
20,RRIRYRPPRLPRPRPRPHKVPRP,-0.739

row,Sequence,shrunken log2 fold change
1,RRIRSRPPRLPRPRPRPGRRPRP,0.263
2,RRIRKRPPRLPRPRPRPLRHPRP,0.35
3,RRIRPRPPRLPRPRPRPAKWPRP,0.0878
4,RRIRDRPPRLPRPRPRPACIPRP,0.194
5,RRIRTRPPRLPRPRPRPNYPPRP,-0.0192
6,RRIRMRPPRLPRPRPRPRATPRP,1.57
7,RRIRYRPPRLPRPRPRPENWPRP,-0.223
8,RRIRQRPPRLPRPRPRPMWHPRP,-0.18
9,RRIRHRPPRLPRPRPRPARVPRP,0.502
10,RRIRFRPPRLPRPRPRPWQSPRP,0.146
11,RRIRNRPPRLPRPRPRPQCYPRP,-0.136
12,RRIRIRPPRLPRPRPRPWFIPRP,-0.243
13,RRIRHRPPRLPRPRPRPSTAPRP,-0.24
14,RRIRCRPPRLPRPRPRPHQWPRP,0.321
15,RRIRMRPPRLPRPRPRPTRCPRP,0.863
16,RRIRKRPPRLPRPRPRPHEWPRP,0.3
17,RRIRCRPPRLPRPRPRPWHHPRP,-1.14
18,RRIRDRPPRLPRPRPRPETMPRP,0.0179
19,RRIRVRPPRLPRPRPRPFFIPRP,-0.265
20,RRIRVRPPRLPRPRPRPCFWPRP,-0.0218
